The target in test [1] is T1, ANK domain of Notch1 intracellular segment N1ICD (UniProt P46531 1872-2126).
T1 chain: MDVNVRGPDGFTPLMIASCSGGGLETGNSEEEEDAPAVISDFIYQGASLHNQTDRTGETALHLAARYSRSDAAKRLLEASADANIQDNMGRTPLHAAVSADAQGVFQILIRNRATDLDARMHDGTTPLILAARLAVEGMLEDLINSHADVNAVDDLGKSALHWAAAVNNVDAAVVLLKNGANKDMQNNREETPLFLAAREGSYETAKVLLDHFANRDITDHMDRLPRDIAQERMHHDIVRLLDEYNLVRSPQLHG
Nature of the test: SPR; FIG. 1D. (In general: In SPR one partner is held on a chip, and binding of the other changes the refractive index at the surface.)

The target in test [2] is T1, ANK domain of Notch1 intracellular …. The experiment in a line: SPR.
Test [3] has as its target T2, ANK1 (α-helical region of the ANK domain of N1ICD) (UniProt P46531 1927-1956).
T2 chain: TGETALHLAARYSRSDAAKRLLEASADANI
The experiment in a line: SPR.

The target of another test is ANK6. Nature of the test: SPR.
For another test, the target named is ANK4. Nature of the test: SPR.
The target in a further test is ANK2. The experiment in a line: SPR.
In a further test the target is ANK3. Nature of the test: SPR.
A further test addresses ANK5. Nature of the test: SPR.
Test [4] addresses T1, ANK domain of Notch1 intracellular …. The experiment in a line: SPR.
For test [5] the target is unchanged. The experiment in a line: SPR; FIG. 1C.

As a reminder, the Kd is the constant that tells how readily two partners part at equilibrium. Lower therefore signals a tighter complex.

Bridges are numbered along the chain shown (N, C = ends). Where no end group is shown, it is not given here. [ ]: non-standard residue; d: D form. S5 = C=CCCC[C@](C)(N)C(=O)O

As for YAKRIFYQLLSKEL [AH2 (α-helix 2 of N1DARP)], the Kd is 60.4 nM in [1], 60.4 nM in test [2] and 4340 nM in [3].

In the case of YAKRIFYQLLSKEL [AH2], the dissociation constant Kd with ANK6 is 64200 nM; in the test with ANK4, 66100 nM; with ANK2, 23300 nM; with ANK3, 85800 nM; in the test with ANK5, 42800 nM.

As to YAKRIFYALLSKQL [mAH2-8], the Kd in test [4] turned out to be 87.4 nM. In other words, the double-digit nanomolar range.

Consider YAKAIFYQLLSKQL [mAH2-4], for which the Kd in [4] came out at 74.5 nM.

Turning to YAKRIFYQLLSKQA [mAH2-14], in [4], the affinity, expressed as Kd, was 5980 nM.

In [2], LLEKKRQY [AH1] returned a dissociation constant Kd of 213 nM.

In test [4], AAKRIFYQLLSKQL [mAH2-1] gave a dissociation constant (Kd) of 96.1 nM.

In turn, YAKRIFYQLLSAQL [mAH2-12] came in with a Kd in test [4] of 78.2 nM.

As for YAKRIFYQLLSKQL [modified AH2 (mAH2), modified α-helice 2], the values for the Kd in [1] and in test [5] were 45.2 nM and 60.4 nM, respectively.

Molecule YAKRIFYQLLAKQL [mAH2-11] gave a Kd in test [4] of 83.9 nM.

Turning to Y[S5]KRI[S5]YQLLSKQL (staple 2-6) [SAH-mAH2-2], binding in test [4] was put at a Kd of 97.7 nM.

For [S5]AKRIFY[S5]LLSKQL (staple 1-8) [SAH-mAH2-4], binding in test [4] was put at a Kd of 25.8 nM.

In test [4], YAKRAFYQLLSKQL [mAH2-5] came in with a Kd of 57.5 nM.

In the case of YAKRIAYQLLSKQL [mAH2-6], the Kd in test [4] amounted to 63.6 nM.

On to YAKRI[S5]YQLLSK[S5]L (staple 6-13) [SAH-mAH2-5 (stapled α-helix-modified α-helix 2-5)], for which, in [4], the Kd is 0.898 nM.

For YAKRIFYQLASKQL [mAH2-10], the Kd in test [4] was 55.5 nM. Compared with the last molecule, the Kd is about 62-fold higher.

In test [4], [S5]AKR[S5]FYQLLSKQL (staple 1-5) [SAH-mAH2-1] came in with a Kd of 134 nM.

With YAKRIFYQLLSKAL [mAH2-13], the Kd in test [4] was found to be 99 nM. This Kd and that of the molecule before are within 1.5-fold of each other.

Consider YAKRIFYQALSKQL [mAH2-9], for which binding in [4] was put at a Kd of 286 nM. Against the preceding molecule, the Kd is about 2.9-fold higher.

Regarding YAARIFYQLLSKQL [mAH2-3], in [4], binding was put at a Kd of 51.1 nM.
